Target: T1, recombinant Kap121p (yeast, UniProt P32337 1-1089)
T1 sequence (looked up): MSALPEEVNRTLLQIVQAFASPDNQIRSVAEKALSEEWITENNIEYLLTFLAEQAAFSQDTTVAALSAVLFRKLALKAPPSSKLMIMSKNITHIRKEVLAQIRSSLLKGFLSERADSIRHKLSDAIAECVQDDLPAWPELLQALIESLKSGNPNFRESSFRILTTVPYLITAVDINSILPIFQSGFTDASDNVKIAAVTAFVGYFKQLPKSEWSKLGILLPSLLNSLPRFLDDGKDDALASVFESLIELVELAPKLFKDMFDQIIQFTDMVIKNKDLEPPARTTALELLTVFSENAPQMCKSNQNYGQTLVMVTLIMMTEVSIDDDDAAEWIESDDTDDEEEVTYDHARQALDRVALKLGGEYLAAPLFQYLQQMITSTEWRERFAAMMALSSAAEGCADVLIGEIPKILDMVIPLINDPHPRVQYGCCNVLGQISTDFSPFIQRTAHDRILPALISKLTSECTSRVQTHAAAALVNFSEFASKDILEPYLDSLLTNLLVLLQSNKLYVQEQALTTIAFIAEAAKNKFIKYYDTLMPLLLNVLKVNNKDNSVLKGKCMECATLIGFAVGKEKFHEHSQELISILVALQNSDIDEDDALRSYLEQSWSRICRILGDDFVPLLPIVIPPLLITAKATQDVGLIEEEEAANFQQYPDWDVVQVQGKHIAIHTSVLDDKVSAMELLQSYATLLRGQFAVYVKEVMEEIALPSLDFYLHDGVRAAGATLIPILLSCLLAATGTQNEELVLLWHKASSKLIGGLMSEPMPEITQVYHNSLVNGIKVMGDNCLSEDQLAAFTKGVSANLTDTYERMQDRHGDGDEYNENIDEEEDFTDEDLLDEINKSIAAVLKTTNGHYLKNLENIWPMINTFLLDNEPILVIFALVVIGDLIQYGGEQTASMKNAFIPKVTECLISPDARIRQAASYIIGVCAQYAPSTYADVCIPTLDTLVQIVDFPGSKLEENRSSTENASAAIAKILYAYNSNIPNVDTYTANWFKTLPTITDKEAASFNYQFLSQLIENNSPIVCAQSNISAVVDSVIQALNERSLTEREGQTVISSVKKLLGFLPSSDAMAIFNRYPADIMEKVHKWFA
Test: pull-down

binding result: binds
B1: GST-401–448 (domain or fragment, yeast, UniProt Q03790 401-448, looked up)
chain: RNAEFKVSKNSTSFKNPRRLEIKDGRSLFLRNRGKIHSGVLSSIESDL

Source: article PMC2173048 (The Journal of Cell Biology, 2002)
